This assay has as its target T1, PAK4cat (Homo sapiens, UniProt O96013).
T1 construct: PAK1 (1-545) and PAK4 (286-591), respectively; 6His (N); made in house; host or cells: Escherichia coli BL21-CodonPlus(DE3)
Put plainly: In vitro kinase assay, phosphorylation of GST-Raf13 by PAK4cat. The assay is classed as biochemical. The conditions noted are these: in vitro, FIG. 1d. As for the experimental part: Purified PAK1 or PAK4 (50 nM in 25-50 μl) were incubated with 10 μM GST-Raf1S338 peptide in 10 μM ATP (2 μCi of γ32P ATP) of kinase buffer (25 mM Hepes, pH 7.3, 0.1% Triton-X100, 50 mM KCl, 10 mM MgCl2, 1 mM DTT) at 30° C. for 20 min. Samples were analysed by SDS-polyacrylamide gel electrophoresis, or adsorption of the GST substrate mix onto PVDF membranes, followed by extensive washing to remove free γ32P-ATP. The synthetic peptides of 95% purity, as determined by HPLC and MS analyses (GenScript), were soluble in aqueous PBS. Stock solutions (10 mM) were quantified via calculated extinction coefficients and absorbance measurements at 280 nm and stored at −80° C. The diluted peptides were incubated at the indicated concentrations with the kinase on ice (10 min) before addition of γ32P ATP and subsequent incubation at 30° C. The synthetic peptide array (Jerini Biotools) was phosphorylated in situ as described previously.

We go through one molecule from patent US10822723B2, “Fusion protein crystal comprising a moiety” (Agency for Science, Technology and Research, priority 2015, dated 2020).

T1 sequence (O96013 286-591): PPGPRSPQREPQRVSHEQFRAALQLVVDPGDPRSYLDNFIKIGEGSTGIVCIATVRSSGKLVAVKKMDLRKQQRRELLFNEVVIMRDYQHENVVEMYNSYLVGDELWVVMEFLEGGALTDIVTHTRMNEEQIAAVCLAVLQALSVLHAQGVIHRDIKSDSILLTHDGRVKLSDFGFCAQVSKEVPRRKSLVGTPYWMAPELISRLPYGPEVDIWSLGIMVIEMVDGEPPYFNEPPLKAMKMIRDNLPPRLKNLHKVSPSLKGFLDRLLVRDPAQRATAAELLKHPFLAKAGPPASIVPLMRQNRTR

B1: Inka1: human Inka1, endogenous protein inhibitor of PAK4 (protein)
chain: MDMHSARLDSFLSQLRWELLCGRDTGSPSMPGPLQPTSQTGPDVQPSHQLRASGALEEDSVCCVEEEEEEEEEAVVTEDRDAALGGPREHALDWDSGFSEVSGSTWREEELPVSQRPAPSAQPLRRQCLSVSGLPMPSRAPVASVPPVHHPRPKSTPDACLEHWQGLEAEDWTAALLNRGRSRQPLVLGDNCFADLVHNWMELPETGSEGGDGGGHRARARPPQFLLGLSEQLRRRLARARRTAMAGKRLSCPPRPEPELPADVSRFAALMSCRSRQPIICNDVS
modifications: left off: small tags and cut ends
Consider B1, for which the Ki is about 30 nM.

The Ki is a measure of affinity in units of concentration, obtained from inhibition or displacement.
